Patent publication US20050003548A1

Molecular target: human CD40 on cells (293.CD40 cells, Namalwa cells, human monocyte-derived dendritic cells) (human) (UniProt P25942)
Assay: cell-based or functional assay

Sequence of UniProt P25942 (P25942 21-277): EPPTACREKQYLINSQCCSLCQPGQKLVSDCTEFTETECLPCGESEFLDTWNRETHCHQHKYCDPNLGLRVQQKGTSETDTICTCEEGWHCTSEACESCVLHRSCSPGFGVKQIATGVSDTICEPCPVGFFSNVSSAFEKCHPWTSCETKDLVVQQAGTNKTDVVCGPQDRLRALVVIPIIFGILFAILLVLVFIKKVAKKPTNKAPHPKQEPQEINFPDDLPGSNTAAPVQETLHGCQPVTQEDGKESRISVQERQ

| Substance | reporter gene delivery to human monocyte-derived dendritic cells by Ad5.DR-LL-Cd complexed with the ligand, fold over Ad5.DR [fold] |
| --- | --- |
| Fc-CD40L (TNF-like domain of human CD40 Ligand fused to the hinge region of the Fc domain of human IgG gamma 1) (from UniProt P29965 116-261) (Fc fusion) | 28 to 35 |
| Fc-G28.5 (fusion of anti-CD40 single chain antibody G28.5 with the Fc domain of human immunoglobulin and a six-histidine sequence) (Fc fusion) | 28 to 35 |
